According to patent US20150273048A1:

Target: M2e4x-PR8HA fusion protein (four tandem repeats of M2e fused to A/PR8 HA) on recombinant M2e4x-PR8HA influenza virus (influenza A/PR/8/34 (H1N1)) (UniProt P03452)
Test: ELISA on serially coated inactivated virus

“Influenza A virus M2 monoclonal antibody 14C2 (Abcam Inc., Cambridge, Mass.)” showed a coating concentration at which reactivity was detected (ng/100 µl/well) of 20 and a fold M2e reactivity relative to parental wild type A/PR8 virus of 250 fold.
